Assay results published in the supplement of paper PMC10065799, “High-throughput profiling of sequence recognition by tyrosine kinases and SH2 domains using bacterial peptide display” (eLife, 2023).

What was measured:
[1] = system: AncSZ; experiment: phosphorylation enrichment, bacterial display (enrichment ratio); higher = better substrate or ligand; peptides without Tyr show the background
[2] = target: EPHB1 (UniProt P54762); experiment: as above
[3] = target: EPHB2 (UniProt P29323); experiment: as above
[4] = target: FGFR1 (UniProt P11362); experiment: as above
[5] = target: FGFR3 (UniProt P22607); experiment: as above
[6] = system: Fer (mouse); experiment: as above
[7] = target: Fes (UniProt P07332); experiment: as above
Fes, sequence (P07332 whole entry, looked up): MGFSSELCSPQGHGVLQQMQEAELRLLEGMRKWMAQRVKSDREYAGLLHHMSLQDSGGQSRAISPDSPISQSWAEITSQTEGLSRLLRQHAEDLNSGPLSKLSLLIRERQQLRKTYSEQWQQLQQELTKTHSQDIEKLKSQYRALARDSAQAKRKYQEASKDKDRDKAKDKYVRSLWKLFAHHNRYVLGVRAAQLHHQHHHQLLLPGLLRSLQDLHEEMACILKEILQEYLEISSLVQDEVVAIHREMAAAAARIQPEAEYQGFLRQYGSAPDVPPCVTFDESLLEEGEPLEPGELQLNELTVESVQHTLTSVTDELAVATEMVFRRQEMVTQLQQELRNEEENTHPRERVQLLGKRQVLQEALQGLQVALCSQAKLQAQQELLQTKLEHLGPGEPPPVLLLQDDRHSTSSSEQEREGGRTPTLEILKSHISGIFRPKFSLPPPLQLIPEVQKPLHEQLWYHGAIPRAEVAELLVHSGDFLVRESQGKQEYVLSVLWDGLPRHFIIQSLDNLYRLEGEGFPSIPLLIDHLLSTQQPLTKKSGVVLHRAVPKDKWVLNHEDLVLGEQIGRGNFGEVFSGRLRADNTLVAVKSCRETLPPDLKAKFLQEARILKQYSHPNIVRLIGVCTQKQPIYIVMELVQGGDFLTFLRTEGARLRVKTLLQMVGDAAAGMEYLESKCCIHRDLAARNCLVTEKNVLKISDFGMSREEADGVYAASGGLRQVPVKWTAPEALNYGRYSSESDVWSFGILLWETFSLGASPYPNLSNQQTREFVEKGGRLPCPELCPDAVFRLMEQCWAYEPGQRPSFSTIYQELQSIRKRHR

[8] = target: Fyn (UniProt P06241); experiment: as above
Fyn, sequence (P06241 whole entry, looked up): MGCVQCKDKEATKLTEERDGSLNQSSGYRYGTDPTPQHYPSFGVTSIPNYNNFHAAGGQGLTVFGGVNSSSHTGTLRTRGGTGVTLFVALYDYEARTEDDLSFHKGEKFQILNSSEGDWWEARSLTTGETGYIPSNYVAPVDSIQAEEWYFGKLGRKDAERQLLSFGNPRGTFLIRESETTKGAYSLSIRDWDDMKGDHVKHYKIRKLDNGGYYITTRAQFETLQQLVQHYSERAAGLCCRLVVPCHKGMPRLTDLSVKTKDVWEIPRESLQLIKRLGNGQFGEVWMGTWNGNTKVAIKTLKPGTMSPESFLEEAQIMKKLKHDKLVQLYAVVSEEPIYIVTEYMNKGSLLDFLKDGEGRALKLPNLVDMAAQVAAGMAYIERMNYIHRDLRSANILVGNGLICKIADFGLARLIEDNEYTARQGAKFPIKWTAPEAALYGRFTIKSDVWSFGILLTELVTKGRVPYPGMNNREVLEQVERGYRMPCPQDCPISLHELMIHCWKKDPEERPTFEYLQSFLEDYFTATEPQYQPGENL

[9] = target: Hck (UniProt P08631); experiment: as above
[10] = target: Jak2 (UniProt O60674); experiment: as above
Jak2, sequence (O60674 whole entry, looked up): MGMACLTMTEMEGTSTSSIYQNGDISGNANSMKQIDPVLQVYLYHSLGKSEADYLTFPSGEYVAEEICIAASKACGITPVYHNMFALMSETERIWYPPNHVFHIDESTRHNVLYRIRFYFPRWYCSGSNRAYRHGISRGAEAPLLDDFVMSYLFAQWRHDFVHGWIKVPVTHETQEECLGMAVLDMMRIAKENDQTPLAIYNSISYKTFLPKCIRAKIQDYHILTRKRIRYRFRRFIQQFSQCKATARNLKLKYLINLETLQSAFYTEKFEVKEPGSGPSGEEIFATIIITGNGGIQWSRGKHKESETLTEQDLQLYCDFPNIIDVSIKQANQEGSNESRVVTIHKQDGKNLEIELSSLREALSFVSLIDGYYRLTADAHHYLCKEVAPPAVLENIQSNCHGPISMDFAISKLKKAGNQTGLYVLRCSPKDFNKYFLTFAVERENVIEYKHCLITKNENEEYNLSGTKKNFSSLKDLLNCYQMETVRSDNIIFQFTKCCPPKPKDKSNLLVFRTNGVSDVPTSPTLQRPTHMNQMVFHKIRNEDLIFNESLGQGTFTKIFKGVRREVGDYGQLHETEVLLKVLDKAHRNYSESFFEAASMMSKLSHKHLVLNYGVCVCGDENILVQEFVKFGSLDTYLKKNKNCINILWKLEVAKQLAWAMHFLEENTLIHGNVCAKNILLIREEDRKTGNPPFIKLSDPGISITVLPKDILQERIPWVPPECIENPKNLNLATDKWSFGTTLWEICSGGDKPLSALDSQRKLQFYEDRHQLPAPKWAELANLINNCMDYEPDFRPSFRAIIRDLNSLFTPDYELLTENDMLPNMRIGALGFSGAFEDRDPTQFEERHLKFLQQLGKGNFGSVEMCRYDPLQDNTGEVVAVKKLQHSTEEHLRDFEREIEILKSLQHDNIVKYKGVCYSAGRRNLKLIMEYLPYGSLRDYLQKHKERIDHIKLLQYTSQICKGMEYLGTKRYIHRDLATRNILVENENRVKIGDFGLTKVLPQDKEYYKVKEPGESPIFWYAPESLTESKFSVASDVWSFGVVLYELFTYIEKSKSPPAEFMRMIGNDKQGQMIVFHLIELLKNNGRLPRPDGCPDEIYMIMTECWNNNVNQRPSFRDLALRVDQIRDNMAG

[11] = target: MERTK (UniProt Q12866); experiment: as above
MERTK, sequence (Q12866 whole entry, looked up): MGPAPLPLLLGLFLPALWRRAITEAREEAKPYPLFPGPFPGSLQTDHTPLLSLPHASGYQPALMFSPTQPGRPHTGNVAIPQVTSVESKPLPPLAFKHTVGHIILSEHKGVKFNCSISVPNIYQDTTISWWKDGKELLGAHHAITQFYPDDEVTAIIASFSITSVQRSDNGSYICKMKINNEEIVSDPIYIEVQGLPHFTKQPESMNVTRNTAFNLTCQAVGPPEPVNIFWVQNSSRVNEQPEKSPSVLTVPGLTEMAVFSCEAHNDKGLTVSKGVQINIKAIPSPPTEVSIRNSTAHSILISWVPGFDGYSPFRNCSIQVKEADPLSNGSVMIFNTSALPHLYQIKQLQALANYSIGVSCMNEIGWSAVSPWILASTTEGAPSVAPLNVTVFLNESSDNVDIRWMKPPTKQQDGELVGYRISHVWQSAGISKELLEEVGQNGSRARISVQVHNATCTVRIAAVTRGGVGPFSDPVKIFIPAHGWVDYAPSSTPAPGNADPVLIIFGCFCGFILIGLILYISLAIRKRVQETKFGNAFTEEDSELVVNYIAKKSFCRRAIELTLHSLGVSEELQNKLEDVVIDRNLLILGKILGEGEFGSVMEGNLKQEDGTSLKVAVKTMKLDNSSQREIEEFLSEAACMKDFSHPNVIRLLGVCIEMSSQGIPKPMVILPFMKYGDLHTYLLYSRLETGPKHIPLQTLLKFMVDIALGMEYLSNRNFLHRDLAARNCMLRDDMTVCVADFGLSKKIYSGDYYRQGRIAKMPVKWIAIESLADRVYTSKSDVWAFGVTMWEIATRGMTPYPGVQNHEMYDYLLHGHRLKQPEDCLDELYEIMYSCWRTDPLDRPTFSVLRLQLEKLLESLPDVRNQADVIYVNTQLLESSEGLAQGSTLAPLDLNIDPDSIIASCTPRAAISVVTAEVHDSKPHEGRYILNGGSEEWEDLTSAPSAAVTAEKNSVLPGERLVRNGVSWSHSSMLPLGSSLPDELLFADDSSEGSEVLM

[12] = system: c-Abl (mouse); experiment: as above
[13] = system: c-Src; experiment: as above
[14] = target: Grb2 SH2 (UniProt P62993); experiment: SH2 binding enrichment of the phosphorylated peptide, bacterial display (enrichment ratio); higher = better substrate or ligand; peptides without Tyr show the background
Grb2 SH2, sequence (P62993 whole entry, looked up): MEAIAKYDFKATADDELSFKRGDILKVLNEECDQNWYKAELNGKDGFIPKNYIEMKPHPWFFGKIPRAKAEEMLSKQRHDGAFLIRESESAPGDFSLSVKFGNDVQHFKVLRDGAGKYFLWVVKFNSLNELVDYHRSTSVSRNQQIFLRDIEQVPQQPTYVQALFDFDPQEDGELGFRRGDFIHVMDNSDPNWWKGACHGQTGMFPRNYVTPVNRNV

[15] = target: SHP2-C SH2; experiment: as above
[16] = target: c-Src SH2; experiment: as above
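Throughout, for SH2 binding enrichment of the phosphorylated peptide, bacterial display: peptide library displayed on the E. coli surface as eCPX fusions, selected cells deep-sequenced, score is each peptide's frequency after selection divided by its frequency in the input.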
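Throughout, for phosphorylation enrichment, bacterial display: 11-residue human phosphosite peptides and single-mutation variants displayed on the E. coli surface, counted by deep sequencing, each peptide's frequency after selection divided by its frequency in the unselected input library; frequency after pTyr selection over input frequency; kinase dosed for 20-30% of maximal phosphorylation in three min.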

EPHB1, sequence (P54762 whole entry, looked up): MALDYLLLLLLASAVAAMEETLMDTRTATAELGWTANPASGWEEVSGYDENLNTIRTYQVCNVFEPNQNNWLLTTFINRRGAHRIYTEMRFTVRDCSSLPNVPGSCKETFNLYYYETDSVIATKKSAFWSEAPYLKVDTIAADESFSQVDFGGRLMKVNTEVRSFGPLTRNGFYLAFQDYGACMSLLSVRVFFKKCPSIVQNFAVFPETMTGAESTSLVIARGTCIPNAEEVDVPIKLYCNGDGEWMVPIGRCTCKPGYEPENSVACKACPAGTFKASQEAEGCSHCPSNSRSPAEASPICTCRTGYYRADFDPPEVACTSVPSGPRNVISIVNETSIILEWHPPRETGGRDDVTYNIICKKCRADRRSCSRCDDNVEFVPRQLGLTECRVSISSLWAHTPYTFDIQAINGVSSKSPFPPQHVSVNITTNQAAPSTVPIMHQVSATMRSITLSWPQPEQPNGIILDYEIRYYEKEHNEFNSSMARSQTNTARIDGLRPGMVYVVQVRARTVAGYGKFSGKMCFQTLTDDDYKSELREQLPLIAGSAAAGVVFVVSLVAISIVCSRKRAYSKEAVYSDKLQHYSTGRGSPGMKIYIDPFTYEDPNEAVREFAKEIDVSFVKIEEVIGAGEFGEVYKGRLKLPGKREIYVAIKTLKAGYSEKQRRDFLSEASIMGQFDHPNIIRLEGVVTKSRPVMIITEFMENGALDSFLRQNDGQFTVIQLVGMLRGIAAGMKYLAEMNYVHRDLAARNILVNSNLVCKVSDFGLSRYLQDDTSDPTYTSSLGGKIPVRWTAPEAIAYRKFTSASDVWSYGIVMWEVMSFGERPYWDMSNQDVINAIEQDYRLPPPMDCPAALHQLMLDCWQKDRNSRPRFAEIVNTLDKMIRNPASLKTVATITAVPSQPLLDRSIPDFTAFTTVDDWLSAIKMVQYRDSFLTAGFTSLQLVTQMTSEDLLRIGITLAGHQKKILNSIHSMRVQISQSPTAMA

Sequence	phosphorylation enrichment [1]	phosphorylation enrichment [2]	phosphorylation enrichment [3]	phosphorylation enrichment [4]	phosphorylation enrichment [5]	phosphorylation enrichment [6]	phosphorylation enrichment [7]	phosphorylation enrichment [8]	phosphorylation enrichment [9]	phosphorylation enrichment [10]	phosphorylation enrichment [11]	phosphorylation enrichment [12]	phosphorylation enrichment [13]	SH2 binding enrichment [14]	SH2 binding enrichment [15]	SH2 binding enrichment [16]
EQKKFSNAMKK [SCN5A_Y1495_Y1495S_YF]	0.474	0.229	0.345	0.378	0.693	0.331	0.473	0.293	0.364	0.315	0.326	0.375	0.401	0.735	0.64	0.642
TDTAAYEERVR [SPTB_Y474]	0.931	0.692	0.767	0.581	0.494	0.407	1.25	0.795	0.686	1.9	1.2	1.2	0.753	0.937	0.677	0.672
GIVEDYRPPFC [ACVRL1_Y421_Y426C]	0.994	0.511	0.532	0.598	0.599	0.437	1.01	0.492	0.406	0.883	0.451	0.782	0.517	0.887	0.713	0.569
TSYQMYDKGLV [IARS2_Y231_F227S]	0.986	0.468	0.665	0.496	0.568	0.405	0.769	0.604	1.13	0.957	0.463	0.432	0.54	0.999	0.759	0.672
LHAAAYQNALA [UQCRC2_Y182_R183Q]	1.01	0.433	0.423	0.512	0.476	0.427	0.715	0.474	0.45	0.646	0.4	0.495	0.393	8.54	0.611	0.837
NLFIEYPTGSG [IRF2BPL_Y423_K418N]	1.14	0.504	0.548	0.582	0.7	0.639	1.02	0.568	0.497	0.828	0.519	0.95	0.56	0.681	0.551	0.399
RQQEVYLLFKQ [RARRES1_Y159_D158V_YF]	1.57	0.915	0.589	0.789	1.19	0.576	1.48	0.892	0.66	1.37	0.478	1.64	0.788	1.34	1.05	0.853
VNKLVYENING [FRS2_Y306]	0.665	4.71	0.75	0.52	0.454	3.63	0.8	0.95	2.67	0.539	1.64	0.524	1.78	23.9	2.03	6.33
YAKSVYWDNTL [NUP107_Y296_E298D]	0.848	0.621	0.515	0.515	0.576	0.871	0.839	0.599	0.678	0.69	0.435	0.557	0.736	0.858	0.9	0.587
ASSPVYVPTTR [GATA6_Y188]	0.525	0.397	0.479	0.323	0.428	0.406	0.539	0.429	0.646	0.44	0.493	0.524	0.51	0.876	0.71	0.433
DQLVKYGVNPG [TMPO_Y127]	0.553	0.467	0.325	0.292	0.49	0.356	0.605	0.369	0.363	0.479	0.314	0.475	0.294	0.888	0.498	0.539
MCITQYKRESQ [PRNP_Y218_E219K]	0.875	0.384	0.587	0.443	0.606	0.501	0.837	0.519	0.433	0.736	0.475	0.454	0.42	0.897	1.08	0.957
LSIQCYLRALD [HMGCS2_Y262]	2.06	1.25	1.31	0.672	1.91	0.822	2.81	0.825	1.12	2.35	0.802	1.98	1.01	0.708	0.49	0.454
SLLVVYPWTQR [HBB_Y36_R31S]	1.05	0.462	0.544	0.438	0.513	0.398	1.01	0.516	0.395	0.804	0.374	0.602	0.36	1.88	1.5	1.14
PFTDPYFDFEI [ZC3H18_Y371_A368T_YF]	2.52	0.835	0.64	16.2	12.4	2	1.88	2.06	1.17	2.84	0.898	1.03	5.82	1.14	0.815	0.649
HRDDGYMPMSP [IRS1_Y612_T608R]	0.785	0.577	0.53	0.534	0.715	0.683	0.817	0.572	0.488	1.16	0.37	0.756	0.589	0.746	0.545	3.65
EDSEYYRAFEE [CASQ2_Y179_K180R]	2.96	0.823	0.724	0.937	1.26	0.518	1.6	0.765	0.675	1.37	0.497	0.915	0.754	0.939	0.559	0.411

Sequence	phosphorylation enrichment [1]	phosphorylation enrichment [2]	phosphorylation enrichment [3]	phosphorylation enrichment [4]	phosphorylation enrichment [5]	phosphorylation enrichment [6]	phosphorylation enrichment [7]	phosphorylation enrichment [8]	phosphorylation enrichment [9]	phosphorylation enrichment [10]	phosphorylation enrichment [11]	phosphorylation enrichment [12]	phosphorylation enrichment [13]	SH2 binding enrichment [14]	SH2 binding enrichment [15]	SH2 binding enrichment [16]
KKKKQYKGKYL [CASK_Y708_D710G]	0.667	0.502	0.54	0.474	0.584	0.444	0.582	0.57	0.513	0.507	0.629	0.529	0.75	0.669	0.302	0.436
TSGVVYKARNK [CDK2_Y19_Y15S]	0.53	0.392	0.358	0.354	0.447	0.519	0.661	0.359	0.462	0.427	0.479	0.51	0.516	0.742	0.866	0.565
NKPTVCGVSPN [ABL1_Y226_Y226C]	0.655	0.476	0.536	0.526	0.589	0.441	0.919	0.439	0.404	0.759	0.467	0.996	0.5	0.952	0.841	0.559
TSNQEYLDVSM [FGFR1_Y766_L769V]	1.15	0.866	0.681	1.24	1.05	0.561	1.06	0.504	0.56	0.958	0.441	0.684	0.415	0.811	0.696	0.567
LDPDSYNKFEN [FOXC1_Y159_M161K]	1.54	0.758	0.656	0.765	0.97	0.483	1.69	0.665	0.698	1.52	0.802	1.25	1.02	0.681	0.838	0.409
AGLVQYYMEHH [PTPN11_Y80_E76G]	0.677	0.973	0.777	0.608	0.73	0.499	0.939	0.545	0.754	0.607	0.49	0.448	0.468	1.35	1.25	1.14
HKGASYAFRLS [PTPRD_Y891_V892A]	1.06	0.935	0.581	0.66	1.11	0.645	0.962	0.838	0.49	0.827	0.525	0.846	0.785	0.891	0.696	0.698
FVSSFYHAFSG [ACTN4_Y265_YF]	0.999	1.51	0.896	1.2	1.34	0.522	1.3	2.32	2.6	1.19	8.71	2.01	4.01	1.33	1.07	0.95
QKDIFYGLRSL [IGSF10_Y126_T124I]	0.894	0.672	0.616	0.515	0.73	0.405	1.29	0.783	0.676	1.12	0.844	1.03	0.923	0.9	1.14	0.516
ERWLKYFPIEQ [HS3ST5_Y244]	1.05	0.401	0.566	0.452	0.798	0.566	1.27	0.361	0.436	0.855	0.451	0.624	0.288	1.25	1.05	0.729
PPKFFYTRKLL [CYBB_Y41]	1.12	0.457	0.683	1.22	0.614	0.513	0.801	0.779	0.462	0.658	0.766	0.694	0.439	1.01	0.709	0.461
AKFPFYEKNKK [FOXL2_Y91]	0.589	0.407	0.467	0.441	0.533	0.304	0.806	0.405	0.443	0.655	0.436	0.545	0.415	1.31	1.38	0.981
GCAGKYIAMVM [CYP19A1_Y441]	1	0.548	0.474	0.44	0.702	0.513	1.07	0.461	0.439	0.889	0.569	0.712	0.414	0.875	0.56	0.603
ADRSCYDLSCR [GARS1_Y467_H472R]	0.849	0.487	0.591	0.499	0.55	0.474	0.835	0.572	0.594	0.8	0.445	0.847	0.616	1.06	0.779	1.17
RPGSGYTNIMQ [PKLR_Y564_R569Q]	0.775	0.61	0.484	0.763	0.517	0.466	0.834	0.469	0.548	0.463	0.524	0.549	0.597	2.13	1.76	2.99
ESPGLCGFLNV [BCR_Y910_Y910C]	1.01	0.595	0.617	0.557	0.72	0.476	1.38	0.494	0.487	0.979	0.519	0.844	0.453	0.622	0.63	0.377
